From PMC6832617 come the findings set out here.

In assay [1] the target is recombinant His-tagged NS1 protein of West Nile virus strain IS-98-ST1 (NS1^WNV) (West Nile virus, strain IS-98-ST1). Description: negative-stain electron microscopy.
Assay [2] has the same target. Description: SDS-PAGE without heat denaturation + Western blot.

As for “recombinant His-tagged NS1 protein of West Nile virus strain IS-98-ST1 (NS1^WNV) (natural protein)”, the stoichiometry N in assay [1] is 6; in assay [2], 2.
